Data published in article PMC9990171 (2023).

What was measured:
[1] = molecular target: SARS-CoV-2 S N-terminal domain (NTD) (SARS-CoV-2 (Wuhan-Hu-1), UniProt P0DTC2 14-294); experiment: ELISA
[2] = molecular target: SARS-CoV-2 S receptor binding domain (RBD) (SARS-CoV-2 (Wuhan-Hu-1), UniProt P0DTC2 329-538); experiment: ELISA

| Binder | EC50 [1] [µg/mL] | EC50 [2] [ng/mL] |
| --- | --- | --- |
| 11C12 bivalent human heavy-chain-only antibody (HCAb) (antibody, V domains shown) VH: EVQLVESGGGLVQPGGSLRLSCAASGFTFSSSWMYWVRHIPGKGLEWVSRTTSDVASTFYADSVKGRFTVSRDNAKNMLYLQMNSLRAEDTAVYYCTRDFHDLWSGYYNHWGQGTLVTVSS | 0.181 | – |
| 10D12 bivalent human heavy-chain-only antibody (HCAb) (antibody, V domains shown) VH: EVQLVETGGGLIQPGGSLRLSCAVSGFTVSLNYMSWVRQAPGKGLEWVSSIYSGGSTFYADSVKGRFTISRDNSKNTLYLQMNSLRAEDTAVYYCARGLGFGELPPFDFWGQGTLVTVSS | – | 3.22 |
| 14D2 bivalent human heavy-chain-only antibody (HCAb) (antibody, V domains shown) VH: EVQLVETGGGLIQPGGSLRLSCAASGFQVSNVYMSWVRQAPGKGQEWVSVLYSGGNTYYADSVKGRFTISRDNSKNMVYLQMNSLRVEDTAVYYCARGWEGVTGTTGPWGQGTLVTVSS | – | 3.48 |
| 7D1 bivalent human heavy-chain-only antibody (HCAb) (antibody, V domains shown) VH: EVQLVETGGGLIQPGGSLRLSCAASGFQVSSSYMSWVRQAPGKGLEWVSVIYSGGGTYYADSVKGRFTISRDISKNTLYLQMNNLRAEDTAMYYCARGWTGVTATTGPWGQGTLVTVSS | – | 4.11 |
| 10H7 bivalent human heavy-chain-only antibody (HCAb) (antibody, V domains shown) VH: EVQLVESGGGLIQPGGSLRLSCAASGFTVSNNYMAWVRQAPGKGLEWISVIYANGNTYYADSVKGRFTISRDNSKNVLFLQMSGLRAEDTAVYYCSSRYGSGSEELYDIWGQGTMVTVSS | – | 3.09 |
